Reference: publication PMC10462622 (Nature Communications, 2023)

T1: near-full-length human CUL5 (residues 12-780) (human, UniProt Q93034 12-780)
T1 construct: not shown: GB1, N-terminal, cleaved
T1 sequence: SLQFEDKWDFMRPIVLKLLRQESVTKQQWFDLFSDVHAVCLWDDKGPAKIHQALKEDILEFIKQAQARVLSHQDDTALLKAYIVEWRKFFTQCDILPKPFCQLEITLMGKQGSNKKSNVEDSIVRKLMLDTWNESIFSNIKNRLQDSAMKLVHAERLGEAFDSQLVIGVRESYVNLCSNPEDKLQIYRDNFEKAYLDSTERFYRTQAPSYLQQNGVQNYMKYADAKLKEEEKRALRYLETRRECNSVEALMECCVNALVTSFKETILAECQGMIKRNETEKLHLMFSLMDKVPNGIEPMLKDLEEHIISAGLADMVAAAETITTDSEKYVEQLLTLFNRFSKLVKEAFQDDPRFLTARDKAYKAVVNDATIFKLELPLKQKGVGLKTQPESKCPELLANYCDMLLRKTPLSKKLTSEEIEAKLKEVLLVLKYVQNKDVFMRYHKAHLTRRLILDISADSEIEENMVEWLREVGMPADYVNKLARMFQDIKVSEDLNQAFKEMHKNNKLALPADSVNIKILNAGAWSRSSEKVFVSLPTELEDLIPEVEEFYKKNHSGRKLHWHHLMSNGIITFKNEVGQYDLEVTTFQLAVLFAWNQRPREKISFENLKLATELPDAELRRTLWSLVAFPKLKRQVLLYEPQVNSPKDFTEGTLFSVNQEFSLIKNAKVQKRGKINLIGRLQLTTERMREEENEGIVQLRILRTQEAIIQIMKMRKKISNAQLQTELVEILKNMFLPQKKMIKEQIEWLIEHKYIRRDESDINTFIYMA

B1: human RBX2 (residues 1-113) (natural protein)
chain: MADVEDGEETCALASHSGSSGSKSGGDKMFSLKKWNAVAMWSWDVECDTCAICRVQVMDACLRCQAENKQEDCVVVWGECNHSFHNCCMSLWVKQNNRCPLCQQDWVVQRIGK
notes: also called RING-box protein 2; source: E. coli BL21(DE3), co-expressed with GB1-CUL5 (pETDuet-1), purified as CUL5/RBX2 complex (Ni-NTA, SEC)
B2: human CBF-β (residues 1-156) (domain or fragment)
chain: MPRVVPDQRSKFENEEFFRKLSRECEIKYTGFRDRPHEERQARFQNACRDGRSEIAFVATGTNLSLQFFPASWQGEQRQTPSREYVDLEREAGKVYLKAPMILNGVCVIWKGWIDLQRLDGMGCLEFDEERAQQEDALAQQAFEEARRRTREFEDR

Key:
[1] = biological target: T1, near-full-length human CUL5 (residues …); assay: cryo-EM structure; details: both partners purified
[2] = biological target: T2, HIV-1 NL4-3 Vif N48H (residues 1-176) (HIV-1 (pNL4-3), UniProt P12504 1-176, N48H); assay: cryo-EM structure; details: both partners purified
T2 construct: also called N48H Vif; N48H NL4-3 Vif

Binder | binding result [1] | binding result [2]
B1 | binds | –
B2 | – | binds
